Results on one molecule are retold here after paper PMC3080401, “Oligomerization of the E. coli Core RNA Polymerase: Formation of (α2ββ'ω)2–DNA Complexes and Regulation of the Oligomerization by Auxiliary Subunits”.

For series [1], the target named is RNA polymerase core enzyme (alpha2 beta beta' omega) (Escherichia coli, UniProt P0A7Z4;P0A8V2;P0A8T7;P0A800 1-329;1-1342;1-1407;1-91). Briefly: EMSA; 40-160 nM core; tandem (D) complex; EMSA buffer D (1x): 20 mM Tris-acetate, 10 mM Mg acetate, 50 mM K acetate, 1 mM DTT, pH 7.8; native PAGE in 0.5x TBE running buffer; 37 C for the tac and slyD template reactions, otherwise temperature not stated. The conditions noted are these: protein: native; chain copies: 2;1;1;1; label: 5'-32P.

Series [2] deals with RNA polymerase holoenzyme (alpha2 beta beta' omega sigma70) (Escherichia coli, UniProt P0A7Z4;P0A8V2;P0A8T7;P0A800;P00579 1-329;1-1342;1-1407;1-91;1-613). Briefly: EMSA; 40-160 nM holoenzyme; single-copy (M) complex; EMSA buffer D (1x): 20 mM Tris-acetate, 10 mM Mg acetate, 50 mM K acetate, 1 mM DTT, pH 7.8; native PAGE in 0.5x TBE running buffer; 37 C for the tac and slyD template reactions, otherwise temperature not stated. The conditions noted are these: protein: native; chain copies: 2;1;1;1;1; label: 5'-32P. (In EMSA bound probe runs differently from free probe, usually more slowly.)

In the case of CGCGCCAACAGCGACATCAAATTTGTCGCC (mixed) [short DNA probe (Fig 2E)], the binding result in series [1] and in series [2] was “binds” each time.
